Sequences and labels used below:
T1: human GIP receptor (human, UniProt P48546 22-466)
T1 sequence (looked up): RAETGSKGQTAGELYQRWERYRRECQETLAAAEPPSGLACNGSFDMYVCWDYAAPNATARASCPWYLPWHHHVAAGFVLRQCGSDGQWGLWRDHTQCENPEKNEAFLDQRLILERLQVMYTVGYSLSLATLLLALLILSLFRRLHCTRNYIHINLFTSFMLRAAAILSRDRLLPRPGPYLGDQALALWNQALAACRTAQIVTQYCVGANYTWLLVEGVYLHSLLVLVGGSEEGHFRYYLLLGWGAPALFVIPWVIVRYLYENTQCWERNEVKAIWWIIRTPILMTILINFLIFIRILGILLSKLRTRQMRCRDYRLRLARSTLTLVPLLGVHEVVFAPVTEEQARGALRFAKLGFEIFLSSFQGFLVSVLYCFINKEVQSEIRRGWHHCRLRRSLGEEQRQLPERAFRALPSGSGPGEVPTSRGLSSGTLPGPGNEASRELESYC

B1: Compound 50 (peptide)
peptide: H-Y[Aib]EGTFTSDYSIYLDEK([γGlu-Palmitoyl])AAKDFIEWLESA-NH2
SMILES: CCCCCCCCCCCCCCCC(=O)N[C@@H](CCC(=O)NCCCC[C@H](NC(=O)[C@H](CCC(=O)O)NC(=O)[C@H](CC(=O)O)NC(=O)[C@H](CC(C)C)NC(=O)[C@H](Cc1ccc(O)cc1)NC(=O)[C@@H](NC(=O)[C@H](CO)NC(=O)[C@H](Cc1ccc(O)cc1)NC(=O)[C@H](CC(=O)O)NC(=O)[C@H](CO)NC(=O)[C@@H](NC(=O)[C@H](Cc1ccccc1)NC(=O)[C@@H](NC(=O)CNC(=O)[C@H](CCC(=O)O)NC(=O)C(C)(C)NC(=O)[C@@H](N)Cc1ccc(O)cc1)[C@@H](C)O)[C@@H](C)O)[C@@H](C)CC)C(=O)N[C@@H](C)C(=O)N[C@@H](C)C(=O)N[C@@H](CCCCN)C(=O)N[C@@H](CC(=O)O)C(=O)N[C@@H](Cc1ccccc1)C(=O)N[C@H](C(=O)N[C@@H](CCC(=O)O)C(=O)N[C@@H](Cc1c[nH]c2ccccc12)C(=O)N[C@@H](CC(C)C)C(=O)N[C@@H](CCC(=O)O)C(=O)N[C@@H](CO)C(=O)N[C@@H](C)C(N)=O)[C@@H](C)CC)C(=O)O
B2: Compound 48 (peptide)
peptide: H-Y[Aib]EGTFTSDYSIYLDEK([γGlu-Palmitoyl])AAKDFVEWLESA-NH2
SMILES: CCCCCCCCCCCCCCCC(=O)N[C@@H](CCC(=O)NCCCC[C@H](NC(=O)[C@H](CCC(=O)O)NC(=O)[C@H](CC(=O)O)NC(=O)[C@H](CC(C)C)NC(=O)[C@H](Cc1ccc(O)cc1)NC(=O)[C@@H](NC(=O)[C@H](CO)NC(=O)[C@H](Cc1ccc(O)cc1)NC(=O)[C@H](CC(=O)O)NC(=O)[C@H](CO)NC(=O)[C@@H](NC(=O)[C@H](Cc1ccccc1)NC(=O)[C@@H](NC(=O)CNC(=O)[C@H](CCC(=O)O)NC(=O)C(C)(C)NC(=O)[C@@H](N)Cc1ccc(O)cc1)[C@@H](C)O)[C@@H](C)O)[C@@H](C)CC)C(=O)N[C@@H](C)C(=O)N[C@@H](C)C(=O)N[C@@H](CCCCN)C(=O)N[C@@H](CC(=O)O)C(=O)N[C@@H](Cc1ccccc1)C(=O)N[C@H](C(=O)N[C@@H](CCC(=O)O)C(=O)N[C@@H](Cc1c[nH]c2ccccc12)C(=O)N[C@@H](CC(C)C)C(=O)N[C@@H](CCC(=O)O)C(=O)N[C@@H](CO)C(=O)N[C@@H](C)C(N)=O)C(C)C)C(=O)O
B3: Compound 49 (peptide)
peptide: H-Y[Aib]EGTFTSDYSKYLDEK([γGlu-Palmitoyl])AAKDFIEWLESA-NH2
SMILES: CCCCCCCCCCCCCCCC(=O)N[C@@H](CCC(=O)NCCCC[C@H](NC(=O)[C@H](CCC(=O)O)NC(=O)[C@H](CC(=O)O)NC(=O)[C@H](CC(C)C)NC(=O)[C@H](Cc1ccc(O)cc1)NC(=O)[C@H](CCCCN)NC(=O)[C@H](CO)NC(=O)[C@H](Cc1ccc(O)cc1)NC(=O)[C@H](CC(=O)O)NC(=O)[C@H](CO)NC(=O)[C@@H](NC(=O)[C@H](Cc1ccccc1)NC(=O)[C@@H](NC(=O)CNC(=O)[C@H](CCC(=O)O)NC(=O)C(C)(C)NC(=O)[C@@H](N)Cc1ccc(O)cc1)[C@@H](C)O)[C@@H](C)O)C(=O)N[C@@H](C)C(=O)N[C@@H](C)C(=O)N[C@@H](CCCCN)C(=O)N[C@@H](CC(=O)O)C(=O)N[C@@H](Cc1ccccc1)C(=O)N[C@H](C(=O)N[C@@H](CCC(=O)O)C(=O)N[C@@H](Cc1c[nH]c2ccccc12)C(=O)N[C@@H](CC(C)C)C(=O)N[C@@H](CCC(=O)O)C(=O)N[C@@H](CO)C(=O)N[C@@H](C)C(N)=O)[C@@H](C)CC)C(=O)O
B4: Compound 51 (peptide)
peptide: H-Y[Aib]EGTFTSDYSKYLDSK([γGlu-Palmitoyl])AAHDFVEWLLRA-NH2
SMILES: CCCCCCCCCCCCCCCC(=O)N[C@@H](CCC(=O)NCCCC[C@H](NC(=O)[C@H](CO)NC(=O)[C@H](CC(=O)O)NC(=O)[C@H](CC(C)C)NC(=O)[C@H](Cc1ccc(O)cc1)NC(=O)[C@H](CCCCN)NC(=O)[C@H](CO)NC(=O)[C@H](Cc1ccc(O)cc1)NC(=O)[C@H](CC(=O)O)NC(=O)[C@H](CO)NC(=O)[C@@H](NC(=O)[C@H](Cc1ccccc1)NC(=O)[C@@H](NC(=O)CNC(=O)[C@H](CCC(=O)O)NC(=O)C(C)(C)NC(=O)[C@@H](N)Cc1ccc(O)cc1)[C@@H](C)O)[C@@H](C)O)C(=O)N[C@@H](C)C(=O)N[C@@H](C)C(=O)N[C@@H](Cc1c[nH]cn1)C(=O)N[C@@H](CC(=O)O)C(=O)N[C@@H](Cc1ccccc1)C(=O)N[C@H](C(=O)N[C@@H](CCC(=O)O)C(=O)N[C@@H](Cc1c[nH]c2ccccc12)C(=O)N[C@@H](CC(C)C)C(=O)N[C@@H](CC(C)C)C(=O)N[C@@H](CCCNC(=N)N)C(=O)N[C@@H](C)C(N)=O)C(C)C)C(=O)O

Numbered stars: 1 amine (or outer) side, 2 acyl side, 3 side chain; on linkers, the order of the positions; unused ones are H or OH. Square brackets hold non-standard residues; d marks the D form. Side chains are listed from the residue outwards. * marks the point of attachment. γGlu = O=C(O)[C@H](CCC(=O)[*:2])N[*:1]; Palmitoyl = CCCCCCCCCCCCCCCC(=O)*; Aib = CC(C)(N)C(=O)O

One assay deals with T1, human GIP receptor. The assay can be described thus: cell-based or functional assay.
As to B1, the “EC50, cAMP induction in HEK293 cells expressing human GIP R” value worked out at 0.053 nM.

For B2, the “EC50, cAMP induction in HEK293 cells expressing human GIP R” value came to 0.061 nM.

With B3, the “EC50, cAMP induction in HEK293 cells expressing human GIP R” value is 0.092 nM.

Consider B4, for which the “EC50, cAMP induction in HEK293 cells expressing human GIP R” value worked out at 0.24 nM.

For the next assay, the target named is human GLP-1 receptor (human, UniProt P43220 24-463). The assay can be described thus: cell-based or functional assay.
On to B1, for which the “EC50, cAMP induction in HEK293 cells expressing human GLP-1 R” value came to 0.09 nM.

Turning to B2, the “EC50, cAMP induction in HEK293 cells expressing human GLP-1 R” value was found to be 0.041 nM.

As to B3, the “EC50, cAMP induction in HEK293 cells expressing human GLP-1 R” value amounted to 0.049 nM.

Regarding B4, the “EC50, cAMP induction in HEK293 cells expressing human GLP-1 R” value is 0.11 nM.

Source of the values: patent US20150299281A1 (ZEALAND PHARMA A S, published 2015).
